Test results published in publication PMC6461989.

B1: recombinant HAI-2 (rHAI-2) proteins containing the extracellular region of HAI-2 (domain or fragment)
chain: ADRERSIHDFCLVSKVVGRCRASMPRWWYNVTDGSCQLFVYGGCDGNSNNYLTKEECLKKCATVTENATGDLATSRNAADSSVPSAPRRQDSEDHSSDMFNYEEYCTANAVTGPCRASFPRWYFDVERNSCNNFIYGGCRGNKNSYRSEEACMLRCFRQQENPPLPLGSK
B2: α-2-antiplasmin (natural protein)
chain: NQEQVSPLTLLKLGNQEPGGQTALKSPPGVCSRDPTPEQTHRLARAMMAFTADLFSLVAQTSTCPNLILSPLSVALALSHLALGAQNHTLQRLQQVLHAGSGPCLPHLLSRLCQDLGPGAFRLAARMYLQKGFPIKEDFLEQSEQLFGAKPVSLTGKQEDDLANINQWVKEATEGKIQEFLSGLPEDTVLLLLNAIHFQGFWRNKFDPSLTQRDSFHLDEQFTVPVEMMQARTYPLRWFLLEQPEIQVAHFPFKNNMSFVVLVPTHFEWNVSQVLANLSWDTLHPPLVWERPTKVRLPKLYLKHQMDLVATLSQLGLQELFQAPDLRGISEQSLVVSGVQHQSTLELSEVGVEAAAATSIAMSRMSLSSFSVNRPFLFFIFEDTTGLPLFVGSVRNPNPSAPRELKEQQDSPGNKDFLQSLKGFPRGDKLFGPDLKLVPPMEEDYPQFGSPK

Target: human active plasmin (human)
Sequence (P00747 20-580, chain 1 of 2): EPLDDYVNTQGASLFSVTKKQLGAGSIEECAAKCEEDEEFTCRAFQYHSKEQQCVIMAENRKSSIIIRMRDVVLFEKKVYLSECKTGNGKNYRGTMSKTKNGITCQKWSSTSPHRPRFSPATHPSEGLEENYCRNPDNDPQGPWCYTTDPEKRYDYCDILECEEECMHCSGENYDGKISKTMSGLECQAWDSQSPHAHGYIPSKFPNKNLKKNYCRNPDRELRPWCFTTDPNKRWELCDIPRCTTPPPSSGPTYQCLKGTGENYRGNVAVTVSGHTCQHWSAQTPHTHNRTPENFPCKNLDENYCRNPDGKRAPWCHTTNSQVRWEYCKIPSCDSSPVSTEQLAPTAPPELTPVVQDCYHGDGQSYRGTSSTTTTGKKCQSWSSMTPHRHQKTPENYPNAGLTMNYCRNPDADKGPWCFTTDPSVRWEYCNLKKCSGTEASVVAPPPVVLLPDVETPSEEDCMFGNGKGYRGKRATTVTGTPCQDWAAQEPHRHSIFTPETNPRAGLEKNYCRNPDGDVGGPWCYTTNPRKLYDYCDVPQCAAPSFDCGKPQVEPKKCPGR
Sequence (P00747 581-810, chain 2 of 2): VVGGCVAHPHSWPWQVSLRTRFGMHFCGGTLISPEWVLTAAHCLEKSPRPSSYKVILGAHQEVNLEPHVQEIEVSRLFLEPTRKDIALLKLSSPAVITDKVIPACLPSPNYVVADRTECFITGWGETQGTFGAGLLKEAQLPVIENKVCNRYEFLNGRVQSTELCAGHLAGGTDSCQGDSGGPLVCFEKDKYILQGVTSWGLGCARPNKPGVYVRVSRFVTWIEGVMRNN

Row | Binder | inhibition of plasmin activity in the presence of equimolar uPA and plasminogen, ratio of HAI-2 to uPA/plasminogen 1:1 (~20% inhibition) to 10:1 (Supplementary Figure S13A) [%] | inhibition of plasmin activity, high ratio of HAI-2 to plasmin (Supplementary Figure S13B) [%] | inhibition of plasmin activity, low ratio (~40%) to high ratio of α-2-antiplasmin to plasmin (Supplementary Figure S13B) [%]
1 | B1 | 75 | 66 | –
2 | B2 | – | – | > 99
